Experimental findings from article PMC11920795 are described below.

The data set concerns the target Pol epsilon WT (holoenzyme) (Saccharomyces cerevisiae, UniProt P21951;P24482;P27344;Q04603 1-2222;1-689;1-201;1-196). The experiment in a line: EMSA. (A gel shift assay detects complexes by their altered migration in electrophoresis.)

Pol epsilon WT (holoenzyme), sequence (P21951 whole entry, chain 1 of 4): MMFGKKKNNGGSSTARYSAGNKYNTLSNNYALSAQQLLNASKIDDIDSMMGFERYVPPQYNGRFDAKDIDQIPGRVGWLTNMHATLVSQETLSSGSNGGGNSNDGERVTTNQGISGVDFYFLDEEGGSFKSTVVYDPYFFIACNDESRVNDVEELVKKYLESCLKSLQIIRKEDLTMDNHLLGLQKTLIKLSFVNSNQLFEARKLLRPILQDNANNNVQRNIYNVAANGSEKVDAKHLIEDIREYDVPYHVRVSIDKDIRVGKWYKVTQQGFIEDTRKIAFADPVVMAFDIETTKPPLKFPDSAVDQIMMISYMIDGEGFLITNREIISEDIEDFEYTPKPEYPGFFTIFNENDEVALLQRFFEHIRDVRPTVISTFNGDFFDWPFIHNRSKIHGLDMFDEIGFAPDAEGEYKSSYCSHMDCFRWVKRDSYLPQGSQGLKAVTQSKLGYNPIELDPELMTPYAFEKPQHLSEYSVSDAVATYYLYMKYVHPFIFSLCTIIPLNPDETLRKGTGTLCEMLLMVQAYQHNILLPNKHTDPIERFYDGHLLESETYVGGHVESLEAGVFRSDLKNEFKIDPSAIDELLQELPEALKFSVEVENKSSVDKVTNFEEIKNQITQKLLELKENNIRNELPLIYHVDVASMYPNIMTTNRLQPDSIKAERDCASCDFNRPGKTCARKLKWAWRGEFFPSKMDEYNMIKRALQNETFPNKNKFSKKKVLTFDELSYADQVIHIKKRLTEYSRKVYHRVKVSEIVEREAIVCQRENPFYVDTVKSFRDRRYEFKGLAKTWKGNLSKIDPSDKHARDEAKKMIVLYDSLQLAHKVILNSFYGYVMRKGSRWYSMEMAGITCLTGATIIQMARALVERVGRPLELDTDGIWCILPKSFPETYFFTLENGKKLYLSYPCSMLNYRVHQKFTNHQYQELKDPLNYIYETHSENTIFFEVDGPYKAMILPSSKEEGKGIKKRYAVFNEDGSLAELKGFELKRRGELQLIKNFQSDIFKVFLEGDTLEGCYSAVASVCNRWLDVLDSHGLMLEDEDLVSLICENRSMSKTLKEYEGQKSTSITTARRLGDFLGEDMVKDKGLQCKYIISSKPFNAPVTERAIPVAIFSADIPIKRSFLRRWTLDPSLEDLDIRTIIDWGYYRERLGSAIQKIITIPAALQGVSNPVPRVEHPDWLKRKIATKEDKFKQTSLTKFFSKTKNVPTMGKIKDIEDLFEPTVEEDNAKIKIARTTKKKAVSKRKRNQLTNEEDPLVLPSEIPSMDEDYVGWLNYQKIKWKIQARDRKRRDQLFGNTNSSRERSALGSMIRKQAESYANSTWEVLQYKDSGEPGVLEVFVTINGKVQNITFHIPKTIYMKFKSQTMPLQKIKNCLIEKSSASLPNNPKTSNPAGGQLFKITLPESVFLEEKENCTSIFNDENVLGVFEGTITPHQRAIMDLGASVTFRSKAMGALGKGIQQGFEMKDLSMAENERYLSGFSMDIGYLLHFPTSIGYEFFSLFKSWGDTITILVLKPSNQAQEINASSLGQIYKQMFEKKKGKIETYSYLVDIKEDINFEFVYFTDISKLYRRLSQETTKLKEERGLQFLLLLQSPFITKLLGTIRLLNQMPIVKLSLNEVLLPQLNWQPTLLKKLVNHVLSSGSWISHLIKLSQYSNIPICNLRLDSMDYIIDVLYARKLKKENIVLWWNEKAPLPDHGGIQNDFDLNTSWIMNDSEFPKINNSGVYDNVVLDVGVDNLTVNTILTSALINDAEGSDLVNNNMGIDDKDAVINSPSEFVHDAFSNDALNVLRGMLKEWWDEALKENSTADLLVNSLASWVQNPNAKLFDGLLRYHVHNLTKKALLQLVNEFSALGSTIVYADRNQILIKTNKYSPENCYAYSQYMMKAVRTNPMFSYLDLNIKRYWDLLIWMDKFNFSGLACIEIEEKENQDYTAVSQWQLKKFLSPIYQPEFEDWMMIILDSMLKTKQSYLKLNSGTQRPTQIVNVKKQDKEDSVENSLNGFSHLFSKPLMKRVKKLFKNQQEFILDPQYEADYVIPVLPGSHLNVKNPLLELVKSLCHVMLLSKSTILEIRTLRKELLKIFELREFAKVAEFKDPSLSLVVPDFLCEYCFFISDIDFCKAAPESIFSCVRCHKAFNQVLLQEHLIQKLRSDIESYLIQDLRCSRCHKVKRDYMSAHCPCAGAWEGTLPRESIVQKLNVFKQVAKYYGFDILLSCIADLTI
Pol epsilon WT (holoenzyme), sequence (P24482 whole entry, chain 2 of 4): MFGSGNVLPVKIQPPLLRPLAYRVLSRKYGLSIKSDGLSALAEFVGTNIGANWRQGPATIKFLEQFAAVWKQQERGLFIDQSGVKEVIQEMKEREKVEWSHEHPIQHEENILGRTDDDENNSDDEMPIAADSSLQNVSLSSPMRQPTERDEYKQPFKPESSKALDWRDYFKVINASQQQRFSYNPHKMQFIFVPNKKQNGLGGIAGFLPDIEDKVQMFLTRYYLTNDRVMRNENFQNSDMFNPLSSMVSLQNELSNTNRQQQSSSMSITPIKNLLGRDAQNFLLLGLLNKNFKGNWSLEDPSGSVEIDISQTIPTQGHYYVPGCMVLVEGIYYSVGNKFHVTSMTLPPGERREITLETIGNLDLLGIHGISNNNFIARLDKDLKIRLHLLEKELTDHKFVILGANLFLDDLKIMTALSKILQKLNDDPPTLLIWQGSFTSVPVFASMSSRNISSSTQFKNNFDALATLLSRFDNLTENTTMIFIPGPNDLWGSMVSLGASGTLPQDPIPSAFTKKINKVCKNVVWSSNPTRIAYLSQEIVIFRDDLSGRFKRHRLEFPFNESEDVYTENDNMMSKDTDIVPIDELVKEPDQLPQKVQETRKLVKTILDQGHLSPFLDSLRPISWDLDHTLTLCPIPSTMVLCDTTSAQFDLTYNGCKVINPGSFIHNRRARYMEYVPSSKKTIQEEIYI
Pol epsilon WT (holoenzyme), sequence (P27344 whole entry, chain 3 of 4): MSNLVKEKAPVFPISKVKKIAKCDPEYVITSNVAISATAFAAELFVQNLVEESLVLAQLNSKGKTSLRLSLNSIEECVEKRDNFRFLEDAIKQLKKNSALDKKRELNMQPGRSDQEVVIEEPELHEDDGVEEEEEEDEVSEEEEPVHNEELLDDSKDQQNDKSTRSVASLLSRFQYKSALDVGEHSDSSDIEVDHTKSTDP
Pol epsilon WT (holoenzyme), sequence (Q04603 whole entry, chain 4 of 4): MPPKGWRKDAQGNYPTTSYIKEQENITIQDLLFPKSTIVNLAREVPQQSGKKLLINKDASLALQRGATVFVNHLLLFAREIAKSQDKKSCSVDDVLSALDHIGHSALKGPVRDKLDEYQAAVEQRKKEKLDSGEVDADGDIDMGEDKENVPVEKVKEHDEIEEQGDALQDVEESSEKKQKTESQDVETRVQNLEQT

B1: P50/T80-1 (mixed)
DNA 1: TGGAACTTTGTACGTCCAAAATTGAATGACTTGGCCAACTACACTAAGTT
DNA 2: GGATTACGAAACGAAGCACATTAGCCCTGGAACTTAGTGTAGTTGGCCAAGTCATTCAATTTTGGACGTACAAAGTTCCA
For the molecule B1, the binding result is listed as “binds”.
